Assay results taken from patent US20230322908A1 (AC IMMUNE, published 2023).

What was measured:
[1] = molecular target: T1, recombinant human full-length TDP-43 (TAR DNA-binding protein 43), soluble (human, UniProt Q13148 1-414); experiment: Luminex, FL TDP-43 on beads
T1 construct: Used on Luminex beads, coated on ELISA plates, and immobilized or injected in SPR; also called FL TDP-43; TDP-43 protein
Procedure: Mice were euthanized and fusion with myeloma cells was performed using splenocytes from four individual mice. Screening for antibodies from the successfully fused hybridoma cell lines were performed as follows. Diluted (1:32) cell culture supernatants were analyzed using Luminex bead-based multiplex assay (Luminex, The Netherlands). Luminex beads were conjugated to FL TDP-43 and with capturing IgGs with anti-mouse IgG-Fc antibodies specific for the IgG1, IgG2a, IgG2b, IgG2c, and IgG3 subclasses (Jackson Immunoresearch, USA). Binding to beads conjugated to FL TDP-43 identified 386 hits derived from mice immunized with the FL TDP-43 liposomal vaccine.
Luminex assays with serial dilution of antibodies were performed as described before to determine half maximal effective concentration (EC50) of binding of antibodies to FL TDP-43. In summary, all tested antibodies bind to full length TDP-43 with high affinity.

[2] = molecular target: T1, recombinant human full-length TDP-43 …; experiment: indirect ELISA, coated FL TDP-43
Procedure: Antibody binding to human FL TDP-43 was determined using an indirect ELISA. ELISA plate coating with 1 µg/ml human FL TDP-43 was performed overnight in carbonate buffer at 4° C. Plates were washed with 0.05% Tween-20/PBS and then blocked with 1% bovine serum albumin (BSA) in 0.05% Tween-20/PBS for 1 hour at 37° C. Antibodies purified from hybridoma supernatants were then added in a 3-fold serial dilution starting at 1 µg/ml, and incubated for 2 hours at 37° C. after which the plates were washed. An AP-conjugated anti-mouse IgG secondary antibody (Jackson Immunoresearch Laboratories, United Kingdom) was added at 1/1000 dilution in 0.05% Tween-20/PBS for 1 hour at 37° C. After the final wash, plates were incubated with pNPP (Sigma-Aldrich, Switzerland) phosphatase substrate solution, and read at 405 nm using an ELISA plate reader (Tecan, Switzerland).

[3] = molecular target: T1, recombinant human full-length TDP-43 …; experiment: SPR, mAb captured, FL TDP-43 injected; mean
Procedure: Binding affinity to soluble FL TDP-43 was evaluated by determing the dissociation constants (KD) using surface plasmon resonance (SPR; Biacore T200, GE Healthcare Life Sciences). Goat-anti mouse capture antibody was immobilized on a CM5 Series S sensor chip (GE Healthcare Life Sciences) by amine coupling. Antibodies were captured at a concentration of 2-5 µg/ml in PBS-P⁺ (GE Healthcare Life Sciences) with a flow rate of 10 µl/min for 120 seconds resulting in a capture level of 350-1000 RU. […] Dissociation was recorded for 1 h followed by one regeneration with 10 mM glycine-HCl pH 1.7. Results obtained from binding kinetics were double-referenced using a blank flow cell and a buffer cycle and were evaluated with a global 1:1 fitting model with RI.

[4] = molecular target: T2, recombinant human aggregated full-length TDP-43 (human, UniProt Q13148 1-414); experiment: SPR, immobilized aggregated TDP-43
T2 construct: also called aggregated TDP-43; aggregated FL TDP-43
T2 sequence (Q13148 whole entry): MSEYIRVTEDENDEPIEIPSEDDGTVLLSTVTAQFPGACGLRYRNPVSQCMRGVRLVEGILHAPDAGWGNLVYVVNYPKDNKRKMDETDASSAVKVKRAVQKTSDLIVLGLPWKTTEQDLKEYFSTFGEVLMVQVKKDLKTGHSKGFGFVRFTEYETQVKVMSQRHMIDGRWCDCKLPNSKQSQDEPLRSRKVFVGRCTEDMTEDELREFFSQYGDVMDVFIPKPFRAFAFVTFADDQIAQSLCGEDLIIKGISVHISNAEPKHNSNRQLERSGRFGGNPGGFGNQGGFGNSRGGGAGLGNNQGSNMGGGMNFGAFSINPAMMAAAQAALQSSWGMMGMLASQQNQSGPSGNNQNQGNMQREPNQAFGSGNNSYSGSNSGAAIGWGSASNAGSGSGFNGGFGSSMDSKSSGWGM
Procedure: (§1) Binding avidity to soluble or aggregated FL TDP-43 was evaluated by determing the dissociation constants (KD) using surface plasmon resonance (SPR; Biacore T200, GE Healthcare Life Sciences). Recombinant human soluble or aggregated FL TDP-43 were immobilized on a CM5 Series S sensor chip (GE Healthcare Life Sciences) by amine coupling. Soluble TDP-43 was immobilized at a concentration of 5 µg/ml in 10 mM sodium acetate (pH 4.5) with a flow rate of 5 µl/min for 420 seconds resulting in an immobilization level of 150 RU. Aggregated TDP-43 was immobilized at a concentration of 50 µg/ml in 10 mM sodium acetate (pH 4.5) with a flow rate of 5 µl/min for 840 seconds resulting in an immobilization level of 110 RU. Biotinylated TP-73 peptide (aa 181-190 of SEQ ID NO:1) was immobilized on a Series S Sensor Chip SA (GE Healthcare Life Sciences) at a concentration of 5 µg/ml in PBS-P⁺ with a flow rate of 5 µl/min for 30 seconds resulting in an immobilization level of 400 RU. […] The antibodies were injected at a flow rate of 50 µl/min for 90 seconds contact time and 700 seconds dissociation phase followed by three regenerations with 10 mM glycine-HCl pH 1.7. For the optimized SPR protocol the antibodies were diluted 3-fold starting from 300 nM and dilute down to 1.2 nM and injected for 300 seconds at 30 µl/min followed by 600 seconds dissociation. The surface was regenerated by one injection with 10 mM glycine-HCl pH 1.7. Results obtained from binding kinetics were double-referenced using a blank flow cell and a buffer cycle and were evaluated with a global 1:1 fitting model with RI. Avidities for 11 antibodies and two Fab fragments are depicted in Table 8. […] In addition, some antibodies show preferential binding to aggregated TDP-43 as compared with soluble TDP-43.

[5] = molecular target: T1, recombinant human full-length TDP-43 …; experiment: SPR, immobilized soluble TDP-43
Procedure: as §1

[6] = molecular target: T1, recombinant human full-length TDP-43 …; experiment: SPR, immobilized soluble TDP-43; Fab fragment, not whole antibody; soluble TDP-43 on the chip
[7] = molecular target: T1, recombinant human full-length TDP-43 …; experiment: SPR optimized protocol, immobilized soluble TDP-43
[8] = molecular target: T2, recombinant human aggregated …; experiment: SPR optimized protocol, immobilized aggregated TDP-43

T1 sequence (Q13148 whole entry): as above

Binder	EC50 [1] [nM]	EC50 [2] [mg/L]	Kd [3] [nM]	koff [3] [s⁻¹]	kon [3] [M⁻¹ s⁻¹]	Kd [4] [nM]	koff [4] [s⁻¹]	kon [4] [M⁻¹ s⁻¹]	Kd [5] [nM]	koff [5] [s⁻¹]	kon [5] [M⁻¹ s⁻¹]	Kd [6] [nM]	Kd [7] [nM]	koff [7] [s⁻¹]	kon [7] [M⁻¹ s⁻¹]	Kd [8] [nM]	koff [8] [s⁻¹]	kon [8] [M⁻¹ s⁻¹]
633B12C8 Fab (Fab, V domains shown, Fab fragment; also called Fab fragment of ACI-7069-633B12-Ab1) VH: EVQLQQSGPELVKPGASVKISCKTSGFTFTEYSMHWVKQSHGKSLEWIGGINPNNGGTSYNQKFKGKATLTVDKSSSTAYMELRSLTSEDSAVYYCARESWGQGTTLTVSS VL: not shown						6.9	0.000215	32200		0.000146	55100	2.8						
ACI-7069-633B12-Ab1 (IgG2a variant) (antibody, V domains shown, Recombinantly produced mouse IgG2a isotype; also called 633B12C8*; ACI-7069-633B12-Ab1 (IgG2a isotype)) VH: EVQLQQSGPELVKPGASVKISCKTSGFTFTEYSMHWVKQSHGKSLEWIGGINPNNGGTSYNQKFKGKATLTVDKSSSTAYMELRSLTSEDSAVYYCARESWGQGTTLTVSS VL: not shown													0.22	1.08e-05	61800	0.18	1.32e-05	84000
ACI-7069-636E5-Ab1 (antibody, mouse IgG2b, V domains shown, Mouse IgG2b, lambda, from hybridoma; also called 636E5B8) VH: EVHLVESGGDLVMPGGSLKLSCAASGFTFSNYGMSWVRQTPDKRLEWVATISSGGKYINYLDSLKGRFTISRDNAKNTLYLQMSSLKSEDTAMYYCAKDYGSGWAWFAYWGQGTLVTVSA VL: QLVLTQSSSASFSLGASAKLTCTLSSQHSTYTIEWYQQQPLKPPKYVMELKKDGSHSTGDGIPDRFSGSSSGADRYLSISNIQPEDEAIYICGVGDTIKEQFVYVFGGGTKVTVL	< 0.01	0.015				2.43	0.000274	113000	43.8	0.000682	15600							

Other lines, results leading:

EC50 [1] [nM]	EC50 [2] [mg/L]	Kd [3] [nM]	koff [3] [s⁻¹]	kon [3] [M⁻¹ s⁻¹]	Kd [4] [nM]	koff [4] [s⁻¹]	kon [4] [M⁻¹ s⁻¹]	Kd [5] [nM]	koff [5] [s⁻¹]	kon [5] [M⁻¹ s⁻¹]	Kd [6] [nM]	Kd [7] [nM]	koff [7] [s⁻¹]	kon [7] [M⁻¹ s⁻¹]	Kd [8] [nM]	koff [8] [s⁻¹]	kon [8] [M⁻¹ s⁻¹]	Binder
< 0.01	0.014	0.423	1.36e-05	32000	0.81	7.63e-05	94700	1.68	0.000167	99400								ACI-7071-809F12-Ab1 (antibody, mouse IgG2b, V domains shown, Mouse IgG2b, kappa, from hybridoma; also called 809F12D8) VH: QVQLKESGPGLVAPSQSLSITCTVSGFSLNRNGVQWVRQPPGKGLEWLGVIWPGGSTNCNSALMSRLSISKDNSKSQVFLKMNSLHTDDTGIYYCARVGGNYVWDYNNYAWGQGTLVTVSA VL: DVLMTQTPLSLPVSLGDQASISCRSSQNIVHSIGNTYLEWYLQKPGQSPKLLIYKVSNRFSGVPDRFSGSGSGTDFTLKISRVEAEDLGVYYCFQGSHVPYTFGGGTKLEIR
< 0.01	0.053				1.51	0.000166	110000	19.7	0.000874	44300								ACI-7069-634H10-Ab2 (antibody, mouse IgG2b, V domains shown, Mouse IgG2b, kappa, from hybridoma; also called 634H10H7) VH: EVQLQQSGAELVKPGASVRLSCTASGFNIKDTYMHWVKQRPEQGLEWIGRIDPANSNTKFDPKFQGKATITSDTSSNTAYLQLSSLTSEDTAVYYCARFYGGSHWYFDVWGAGTTVTVSS VL: DIKMTQSPSSMYASLGERVTITCKASQDIKSYLSWYQHKPWKSPKALIYYATSLADGVPSRFSGSGSGQDYSLTISSLESDDTATYYCLQQGESPYTFGGGTKLEIK
